According to US20260001928A1 (CORTERIA PHARMACEUTICALS, priority 2022, published 2026):
Blank lines part the entries; values can stand above or below the binder they belong to. *1 amine or outer side, *2 acyl side, *3 side chain or, on linkers, in order; H or OH if unused. Where no end group is shown, it is not given here. Side-chain parts run from the residue outwards. [ ]: non-standard residue; d: D form. The star is where a group is joined. C20 diacid = O=C(O)CCCCCCCCCCCCCCCCCCC(=O)*; γGlu = O=C(O)[C@H](CCC(=O)[*:2])N[*:1]; NMeI = CC[C@H](C)[C@H](NC)C(=O)O; Decanoyl = CCCCCCCCCC(=O)*; Pentanoyl = CCCCC(=O)*; Aib = CC(C)(N)C(=O)O

Columns and labels:
[1] = target: human corticotropin-releasing factor 2a (CRF2a receptor) (human), Q13324; assay: cell-based or functional assay
[2] = target: T1, CRF1R receptor (UniProt P34998 24-415, limits assumed); assay: cell-based or functional assay
T1 sequence (looked up): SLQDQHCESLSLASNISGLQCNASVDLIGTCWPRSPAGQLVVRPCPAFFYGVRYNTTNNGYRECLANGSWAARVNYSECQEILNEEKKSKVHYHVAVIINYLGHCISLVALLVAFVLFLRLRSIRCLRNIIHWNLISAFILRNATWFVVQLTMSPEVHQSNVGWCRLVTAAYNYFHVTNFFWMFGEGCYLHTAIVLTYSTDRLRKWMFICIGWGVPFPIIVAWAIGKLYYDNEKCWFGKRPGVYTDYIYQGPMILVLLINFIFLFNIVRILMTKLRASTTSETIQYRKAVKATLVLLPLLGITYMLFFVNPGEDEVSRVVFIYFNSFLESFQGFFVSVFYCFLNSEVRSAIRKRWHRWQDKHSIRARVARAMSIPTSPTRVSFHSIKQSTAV

Chain of human corticotropin-releasing factor 2a (CRF2a receptor) (human), Q13324 (Q13324 20-411): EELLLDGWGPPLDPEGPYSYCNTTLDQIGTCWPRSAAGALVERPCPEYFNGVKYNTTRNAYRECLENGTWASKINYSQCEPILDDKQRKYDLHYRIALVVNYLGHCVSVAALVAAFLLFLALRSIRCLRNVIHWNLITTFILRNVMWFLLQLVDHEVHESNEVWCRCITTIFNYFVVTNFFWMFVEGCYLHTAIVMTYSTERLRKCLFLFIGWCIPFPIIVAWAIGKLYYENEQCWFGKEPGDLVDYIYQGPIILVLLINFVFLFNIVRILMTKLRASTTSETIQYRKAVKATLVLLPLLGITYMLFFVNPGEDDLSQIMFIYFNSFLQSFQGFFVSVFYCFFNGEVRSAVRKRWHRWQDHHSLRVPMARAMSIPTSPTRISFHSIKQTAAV

EC50 [nM] (cAMP) [1]: 0.16 nM
EC50 [2]: 222 nM
Emax (% I) [2]: 48%
B2: SEQ ID NO 219 (peptide)
peptide: Pentanoyl-VLSLD[dV]PIKLK([γGlu-C20 diacid])KILLEQEKQKKQREQAETN[Aib]QILAQV-NH2
SMILES: CCCCC(=O)N[C@H](C(=O)N[C@@H](CC(C)C)C(=O)N[C@@H](CO)C(=O)N[C@@H](CC(C)C)C(=O)N[C@@H](CC(=O)O)C(=O)N[C@@H](C(=O)N1CCC[C@H]1C(=O)N[C@H](C(=O)N[C@@H](CCCCN)C(=O)N[C@@H](CC(C)C)C(=O)N[C@@H](CCCCNC(=O)CC[C@H](NC(=O)CCCCCCCCCCCCCCCCCCC(=O)O)C(=O)O)C(=O)N[C@@H](CCCCN)C(=O)N[C@H](C(=O)N[C@@H](CC(C)C)C(=O)N[C@@H](CC(C)C)C(=O)N[C@@H](CCC(=O)O)C(=O)N[C@@H](CCC(N)=O)C(=O)N[C@@H](CCC(=O)O)C(=O)N[C@@H](CCCCN)C(=O)N[C@@H](CCC(N)=O)C(=O)N[C@@H](CCCCN)C(=O)N[C@@H](CCCCN)C(=O)N[C@@H](CCC(N)=O)C(=O)N[C@@H](CCCNC(=N)N)C(=O)N[C@@H](CCC(=O)O)C(=O)N[C@@H](CCC(N)=O)C(=O)N[C@@H](C)C(=O)N[C@@H](CCC(=O)O)C(=O)N[C@H](C(=O)N[C@@H](CC(N)=O)C(=O)NC(C)(C)C(=O)N[C@@H](CCC(N)=O)C(=O)N[C@H](C(=O)N[C@@H](CC(C)C)C(=O)N[C@@H](C)C(=O)N[C@@H](CCC(N)=O)C(=O)N[C@H](C(N)=O)C(C)C)[C@@H](C)CC)[C@@H](C)O)[C@@H](C)CC)[C@@H](C)CC)C(C)C)C(C)C

EC50 [nM] (cAMP) [1]: 0.27 nM
Emax (% I) [2]: 32%
B3: SEQ ID NO 220 (peptide)
peptide: Pentanoyl-VLSLD[dV]PIKLK([γGlu-C20 diacid])KILLEQEKQK[Aib]QREQAETN[Aib]QILAQV-NH2
SMILES: CCCCC(=O)N[C@H](C(=O)N[C@@H](CC(C)C)C(=O)N[C@@H](CO)C(=O)N[C@@H](CC(C)C)C(=O)N[C@@H](CC(=O)O)C(=O)N[C@@H](C(=O)N1CCC[C@H]1C(=O)N[C@H](C(=O)N[C@@H](CCCCN)C(=O)N[C@@H](CC(C)C)C(=O)N[C@@H](CCCCNC(=O)CC[C@H](NC(=O)CCCCCCCCCCCCCCCCCCC(=O)O)C(=O)O)C(=O)N[C@@H](CCCCN)C(=O)N[C@H](C(=O)N[C@@H](CC(C)C)C(=O)N[C@@H](CC(C)C)C(=O)N[C@@H](CCC(=O)O)C(=O)N[C@@H](CCC(N)=O)C(=O)N[C@@H](CCC(=O)O)C(=O)N[C@@H](CCCCN)C(=O)N[C@@H](CCC(N)=O)C(=O)N[C@@H](CCCCN)C(=O)NC(C)(C)C(=O)N[C@@H](CCC(N)=O)C(=O)N[C@@H](CCCNC(=N)N)C(=O)N[C@@H](CCC(=O)O)C(=O)N[C@@H](CCC(N)=O)C(=O)N[C@@H](C)C(=O)N[C@@H](CCC(=O)O)C(=O)N[C@H](C(=O)N[C@@H](CC(N)=O)C(=O)NC(C)(C)C(=O)N[C@@H](CCC(N)=O)C(=O)N[C@H](C(=O)N[C@@H](CC(C)C)C(=O)N[C@@H](C)C(=O)N[C@@H](CCC(N)=O)C(=O)N[C@H](C(N)=O)C(C)C)[C@@H](C)CC)[C@@H](C)O)[C@@H](C)CC)[C@@H](C)CC)C(C)C)C(C)C

The remaining lines, values behind:

B1: SEQ ID NO 222 (peptide)
peptide: Pentanoyl-VLSLD[dV]PIKLK([γGlu-C20 diacid])KILLEQEKQKAQREQAETN[Aib]QILAQV-NH2
SMILES: CCCCC(=O)N[C@H](C(=O)N[C@@H](CC(C)C)C(=O)N[C@@H](CO)C(=O)N[C@@H](CC(C)C)C(=O)N[C@@H](CC(=O)O)C(=O)N[C@@H](C(=O)N1CCC[C@H]1C(=O)N[C@H](C(=O)N[C@@H](CCCCN)C(=O)N[C@@H](CC(C)C)C(=O)N[C@@H](CCCCNC(=O)CC[C@H](NC(=O)CCCCCCCCCCCCCCCCCCC(=O)O)C(=O)O)C(=O)N[C@@H](CCCCN)C(=O)N[C@H](C(=O)N[C@@H](CC(C)C)C(=O)N[C@@H](CC(C)C)C(=O)N[C@@H](CCC(=O)O)C(=O)N[C@@H](CCC(N)=O)C(=O)N[C@@H](CCC(=O)O)C(=O)N[C@@H](CCCCN)C(=O)N[C@@H](CCC(N)=O)C(=O)N[C@@H](CCCCN)C(=O)N[C@@H](C)C(=O)N[C@@H](CCC(N)=O)C(=O)N[C@@H](CCCNC(=N)N)C(=O)N[C@@H](CCC(=O)O)C(=O)N[C@@H](CCC(N)=O)C(=O)N[C@@H](C)C(=O)N[C@@H](CCC(=O)O)C(=O)N[C@H](C(=O)N[C@@H](CC(N)=O)C(=O)NC(C)(C)C(=O)N[C@@H](CCC(N)=O)C(=O)N[C@H](C(=O)N[C@@H](CC(C)C)C(=O)N[C@@H](C)C(=O)N[C@@H](CCC(N)=O)C(=O)N[C@H](C(N)=O)C(C)C)[C@@H](C)CC)[C@@H](C)O)[C@@H](C)CC)[C@@H](C)CC)C(C)C)C(C)C
EC50 [nM] (cAMP) [1]: 0.14 nM
EC50 [2]: 196 nM
Emax (% I) [2]: 50%

B4: SEQ ID NO 221 (peptide)
peptide: Pentanoyl-VLSLD[dV]PIKLK([γGlu-C20 diacid])KILLEQEAQKKQREQAETN[Aib]QILAQV-NH2
SMILES: CCCCC(=O)N[C@H](C(=O)N[C@@H](CC(C)C)C(=O)N[C@@H](CO)C(=O)N[C@@H](CC(C)C)C(=O)N[C@@H](CC(=O)O)C(=O)N[C@@H](C(=O)N1CCC[C@H]1C(=O)N[C@H](C(=O)N[C@@H](CCCCN)C(=O)N[C@@H](CC(C)C)C(=O)N[C@@H](CCCCNC(=O)CC[C@H](NC(=O)CCCCCCCCCCCCCCCCCCC(=O)O)C(=O)O)C(=O)N[C@@H](CCCCN)C(=O)N[C@H](C(=O)N[C@@H](CC(C)C)C(=O)N[C@@H](CC(C)C)C(=O)N[C@@H](CCC(=O)O)C(=O)N[C@@H](CCC(N)=O)C(=O)N[C@@H](CCC(=O)O)C(=O)N[C@@H](C)C(=O)N[C@@H](CCC(N)=O)C(=O)N[C@@H](CCCCN)C(=O)N[C@@H](CCCCN)C(=O)N[C@@H](CCC(N)=O)C(=O)N[C@@H](CCCNC(=N)N)C(=O)N[C@@H](CCC(=O)O)C(=O)N[C@@H](CCC(N)=O)C(=O)N[C@@H](C)C(=O)N[C@@H](CCC(=O)O)C(=O)N[C@H](C(=O)N[C@@H](CC(N)=O)C(=O)NC(C)(C)C(=O)N[C@@H](CCC(N)=O)C(=O)N[C@H](C(=O)N[C@@H](CC(C)C)C(=O)N[C@@H](C)C(=O)N[C@@H](CCC(N)=O)C(=O)N[C@H](C(N)=O)C(C)C)[C@@H](C)CC)[C@@H](C)O)[C@@H](C)CC)[C@@H](C)CC)C(C)C)C(C)C
EC50 [nM] (cAMP) [1]: 0.18 nM
EC50 [2]: 22.5 nM
Emax (% I) [2]: 79%

B5: SEQ ID NO 218 (peptide)
peptide: [NMeI]VLSLD[dV]PIKLK([γGlu-C20 diacid])KILLEQEKQKEQREQAETN[Aib]QILAQV-NH2
modifications: N-terminus assumed
SMILES: CC[C@H](C)[C@H](NC)C(=O)N[C@H](C(=O)N[C@@H](CC(C)C)C(=O)N[C@@H](CO)C(=O)N[C@@H](CC(C)C)C(=O)N[C@@H](CC(=O)O)C(=O)N[C@@H](C(=O)N1CCC[C@H]1C(=O)N[C@H](C(=O)N[C@@H](CCCCN)C(=O)N[C@@H](CC(C)C)C(=O)N[C@@H](CCCCNC(=O)CC[C@H](NC(=O)CCCCCCCCCCCCCCCCCCC(=O)O)C(=O)O)C(=O)N[C@@H](CCCCN)C(=O)N[C@H](C(=O)N[C@@H](CC(C)C)C(=O)N[C@@H](CC(C)C)C(=O)N[C@@H](CCC(=O)O)C(=O)N[C@@H](CCC(N)=O)C(=O)N[C@@H](CCC(=O)O)C(=O)N[C@@H](CCCCN)C(=O)N[C@@H](CCC(N)=O)C(=O)N[C@@H](CCCCN)C(=O)N[C@@H](CCC(=O)O)C(=O)N[C@@H](CCC(N)=O)C(=O)N[C@@H](CCCNC(=N)N)C(=O)N[C@@H](CCC(=O)O)C(=O)N[C@@H](CCC(N)=O)C(=O)N[C@@H](C)C(=O)N[C@@H](CCC(=O)O)C(=O)N[C@H](C(=O)N[C@@H](CC(N)=O)C(=O)NC(C)(C)C(=O)N[C@@H](CCC(N)=O)C(=O)N[C@H](C(=O)N[C@@H](CC(C)C)C(=O)N[C@@H](C)C(=O)N[C@@H](CCC(N)=O)C(=O)N[C@H](C(N)=O)C(C)C)[C@@H](C)CC)[C@@H](C)O)[C@@H](C)CC)[C@@H](C)CC)C(C)C)C(C)C
EC50 [nM] (cAMP) [1]: 0.11 nM
Emax (% I) [2]: 24%

B6: SEQ ID NO 223 (peptide)
peptide: Decanoyl-VLSLD[dV]PIKLK([γGlu-C20 diacid])KILLEQEKQKKQREQAETN[Aib]QILAQV-NH2
SMILES: CCCCCCCCCC(=O)N[C@H](C(=O)N[C@@H](CC(C)C)C(=O)N[C@@H](CO)C(=O)N[C@@H](CC(C)C)C(=O)N[C@@H](CC(=O)O)C(=O)N[C@@H](C(=O)N1CCC[C@H]1C(=O)N[C@H](C(=O)N[C@@H](CCCCN)C(=O)N[C@@H](CC(C)C)C(=O)N[C@@H](CCCCNC(=O)CC[C@H](NC(=O)CCCCCCCCCCCCCCCCCCC(=O)O)C(=O)O)C(=O)N[C@@H](CCCCN)C(=O)N[C@H](C(=O)N[C@@H](CC(C)C)C(=O)N[C@@H](CC(C)C)C(=O)N[C@@H](CCC(=O)O)C(=O)N[C@@H](CCC(N)=O)C(=O)N[C@@H](CCC(=O)O)C(=O)N[C@@H](CCCCN)C(=O)N[C@@H](CCC(N)=O)C(=O)N[C@@H](CCCCN)C(=O)N[C@@H](CCCCN)C(=O)N[C@@H](CCC(N)=O)C(=O)N[C@@H](CCCNC(=N)N)C(=O)N[C@@H](CCC(=O)O)C(=O)N[C@@H](CCC(N)=O)C(=O)N[C@@H](C)C(=O)N[C@@H](CCC(=O)O)C(=O)N[C@H](C(=O)N[C@@H](CC(N)=O)C(=O)NC(C)(C)C(=O)N[C@@H](CCC(N)=O)C(=O)N[C@H](C(=O)N[C@@H](CC(C)C)C(=O)N[C@@H](C)C(=O)N[C@@H](CCC(N)=O)C(=O)N[C@H](C(N)=O)C(C)C)[C@@H](C)CC)[C@@H](C)O)[C@@H](C)CC)[C@@H](C)CC)C(C)C)C(C)C
EC50 [nM] (cAMP) [1]: 0.08 nM
EC50 [2]: 152 nM
Emax (% I) [2]: 58%
